In patent US20020045205A1, “Method for autoactivation of procaspase 8” (priority 1998, published 2002):

Columns and labels:
[1] = substrate: CC(=O)N[C@@H](CC(=O)O)C(=O)N[C@@H](CCC(=O)O)C(=O)N[C@H](C(=O)N[C@@H](CC(=O)O)C(=O)Nc1ccc([N+](=O)[O-])cc1)C(C)C; assay: Substrate Km in caspase 8 enzyme assay; format: biochemical, human; settings: other: 100 mM sodium phosphate/10 mM Tris/100 mM DTT, pH 7.50, 37° C., pH 7.5
Method: Unless otherwise indicated, all specific enzyme activity measurements described herein were made using the Ac-DEVD-pNA substrate. […] Initial rates were determined as follows: 100 μl of 1M DTT, 790 μl 100 mM sodium phosphate/10 mM Tris, pH 7.50, and 10 μl of caspase 8 sample solution (for protein concentrations near 0.5 mg/ml) were added to a quartz semi-micro cuvette.

[2] = Cleavage of chromogenic and fluorogenic caspase substrates; format: biochemical, human; settings: substrates Ac-DEVD-pNA, Ac-IETD-pNA, Ac-DEVD-AMC
Source text: Enzyme activity of caspase 8 preparations was monitored using the chromogenic substrates Ac-DEVD-pNA or Ac-IETD-pNA or the fluorogenic substrates Ac-DEVD-AMC or Ac-IETD-AMC. For the chromogenic substrates, kinetic release of para-nitroaniline (pNA) was followed at 405 nm using either a Lambda 6 spectrophotometer or in a microtitre plate format using a Molecular Devices Thermomax plate reader with 405 nm wavelength filter. Kinetic enzyme assays monitoring the release of 7-amino-4-methyl-coumarin from the fluorogenic substrates were conducted using a Molecular Devices fmax plate reader with Ex=355 nm and Em=460 nm.

| Molecule | Km [1] | activity against caspase substrates [2] |
| --- | --- | --- |
| caspase 8 (Homo sapiens) (protein, the 19 kDa peptide (S ^18PREQD . . . IPVETD^181); the 11 kDa chain (L^192SSPQ . . . LVFPSD^286); (His)6 (MRGS(H)6 leader, 12-residue prosegment from pQE30) (N, cleaved yes); made in house; host or cells: E. coli M15 (pREP4), vector pQE30) chain 1: SPREQDSESQTLDKVYQMKSKPRGYCLIINNHNFAKAREKVPKLHSIRDRNGTHLDAGALTTTFEELHFEIKPHDDCTVEQIYEILKIYQLMDHSNMDCFICCILSHGDKGIIYGTDGQEAPIYELTSQFTGLKCPSLAGKPKVFFIQACQGDNYQKGIPVETD chain 2: LSSPQTRYIPDEADFLLGMATVNNCVSYRNPAEGTWYIQSLCQSLRERCPRGDDILTILTEVNYEVSNKDDKKNMGKQMPQPTFTLRKKLVFPSD | 167 µM |  |
| Concentrated, but unprocessed, protein: recombinant procaspase 8 polypeptide lacking the DED prodomain, with (His)6 tag, SEQ ID NO:1 (protein, listed as Homo sapiens, (His)6 tag) MRGSHHHHHHGSMTISDSPREQDSESQTLDKVYQMKSKPRGYCLIINNHNFAKAREKVPKLHSIRDRNGTHLDAGALTTTFEELHFEIKPHDDCTVEQIYEILKIYQLMDHSNMDCFICCILSHGDKGIIYGTDGQEAPIYELTSQFTGLKCPSLAGKPKVFFIQACQGDNYQKGIPVETDSEEQPYLEMDLSSPQTRYIPDEADFLLGMATVNNCVSYRNPAEGTWYIQSLCQSLRERCPRGDDILTILTEVNYEVSNKDDKKNMGKQMPQPTFTLRKKLVFPSD |  | no measurable activity |
